# Reference: article PMC6961784
# Key:
# [1] = biological target: SNAPf-tagged EWS/FLI1 (human); experiment: live-cell single-particle tracking
# FUS LCD = FUS LCD (UniProt P35637); experiment: live-cell single-particle tracking
# UniProt P35637, sequence (P35637 2-214): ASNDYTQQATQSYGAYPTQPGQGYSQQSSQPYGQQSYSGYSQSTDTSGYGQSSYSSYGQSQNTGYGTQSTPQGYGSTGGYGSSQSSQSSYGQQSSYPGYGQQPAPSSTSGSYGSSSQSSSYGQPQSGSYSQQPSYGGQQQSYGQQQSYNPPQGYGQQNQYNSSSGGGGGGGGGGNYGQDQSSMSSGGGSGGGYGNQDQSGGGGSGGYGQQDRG
Substance,residence time (RT) [1] [s],residence time (RT) (FUS LCD) [s]
EWS(YS) LCD-Halo (domain or fragment),7,–
EWS LCD-Halo (domain or fragment),16,–
Sp1 LCD (from UniProt P08047 1-785) (domain or fragment),–,< 1
